Source: US20230416330A1, “Optimized GIP Peptide Analogues” (Antag Therapeutics ApS, priority 2019, published 2023)
No end group written: not given here. *: point of attachment. C16 diacid = O=C(O)CCCCCCCCCCCCCCC(=O)*

T1: human GIP receptor (human, UniProt P48546 22-466)
T1 sequence (looked up): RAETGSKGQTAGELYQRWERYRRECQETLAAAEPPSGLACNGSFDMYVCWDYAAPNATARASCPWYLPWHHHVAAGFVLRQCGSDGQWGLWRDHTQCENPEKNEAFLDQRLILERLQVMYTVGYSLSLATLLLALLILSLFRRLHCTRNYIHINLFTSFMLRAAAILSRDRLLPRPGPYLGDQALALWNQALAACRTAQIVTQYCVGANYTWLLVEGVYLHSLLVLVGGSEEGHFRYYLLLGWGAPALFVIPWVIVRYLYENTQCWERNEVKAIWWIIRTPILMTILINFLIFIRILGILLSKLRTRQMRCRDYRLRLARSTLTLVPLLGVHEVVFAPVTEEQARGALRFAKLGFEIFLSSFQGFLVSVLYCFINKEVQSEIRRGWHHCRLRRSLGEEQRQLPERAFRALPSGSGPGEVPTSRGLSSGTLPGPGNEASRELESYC

B1: AT747 (peptide)
peptide: EGTFISDYSIAMDKIK(C16 diacid)QQDFVEWLLAEKPSSGAPPPS-OH
modifications: N-terminus assumed
SMILES: CC[C@H](C)[C@H](NC(=O)[C@H](CO)NC(=O)[C@H](Cc1ccc(O)cc1)NC(=O)[C@H](CC(=O)O)NC(=O)[C@H](CO)NC(=O)[C@@H](NC(=O)[C@H](Cc1ccccc1)NC(=O)[C@@H](NC(=O)CNC(=O)[C@@H](N)CCC(=O)O)[C@@H](C)O)[C@@H](C)CC)C(=O)N[C@@H](C)C(=O)N[C@@H](CCSC)C(=O)N[C@@H](CC(=O)O)C(=O)N[C@@H](CCCCN)C(=O)N[C@H](C(=O)N[C@@H](CCCCNC(=O)CCCCCCCCCCCCCCC(=O)O)C(=O)N[C@@H](CCC(N)=O)C(=O)N[C@@H](CCC(N)=O)C(=O)N[C@@H](CC(=O)O)C(=O)N[C@@H](Cc1ccccc1)C(=O)N[C@H](C(=O)N[C@@H](CCC(=O)O)C(=O)N[C@@H](Cc1c[nH]c2ccccc12)C(=O)N[C@@H](CC(C)C)C(=O)N[C@@H](CC(C)C)C(=O)N[C@@H](C)C(=O)N[C@@H](CCC(=O)O)C(=O)N[C@@H](CCCCN)C(=O)N1CCC[C@H]1C(=O)N[C@@H](CO)C(=O)N[C@@H](CO)C(=O)NCC(=O)N[C@@H](C)C(=O)N1CCC[C@H]1C(=O)N1CCC[C@H]1C(=O)N1CCC[C@H]1C(=O)N[C@@H](CO)C(=O)O)C(C)C)[C@@H](C)CC
B2: AT748 (peptide)
peptide: EGTFISDYSIAMDAIK(C16 diacid)QQDFVEWLLAQKPSSGAPPPS-OH
modifications: N-terminus assumed
SMILES: CC[C@H](C)[C@H](NC(=O)[C@H](C)NC(=O)[C@H](CC(=O)O)NC(=O)[C@H](CCSC)NC(=O)[C@H](C)NC(=O)[C@@H](NC(=O)[C@H](CO)NC(=O)[C@H](Cc1ccc(O)cc1)NC(=O)[C@H](CC(=O)O)NC(=O)[C@H](CO)NC(=O)[C@@H](NC(=O)[C@H](Cc1ccccc1)NC(=O)[C@@H](NC(=O)CNC(=O)[C@@H](N)CCC(=O)O)[C@@H](C)O)[C@@H](C)CC)[C@@H](C)CC)C(=O)N[C@@H](CCCCNC(=O)CCCCCCCCCCCCCCC(=O)O)C(=O)N[C@@H](CCC(N)=O)C(=O)N[C@@H](CCC(N)=O)C(=O)N[C@@H](CC(=O)O)C(=O)N[C@@H](Cc1ccccc1)C(=O)N[C@H](C(=O)N[C@@H](CCC(=O)O)C(=O)N[C@@H](Cc1c[nH]c2ccccc12)C(=O)N[C@@H](CC(C)C)C(=O)N[C@@H](CC(C)C)C(=O)N[C@@H](C)C(=O)N[C@@H](CCC(N)=O)C(=O)N[C@@H](CCCCN)C(=O)N1CCC[C@H]1C(=O)N[C@@H](CO)C(=O)N[C@@H](CO)C(=O)NCC(=O)N[C@@H](C)C(=O)N1CCC[C@H]1C(=O)N1CCC[C@H]1C(=O)N1CCC[C@H]1C(=O)N[C@@H](CO)C(=O)O)C(C)C
B3: AT749 (peptide)
peptide: EGTFISDYSIAMDKIK(C16 diacid)QQDFVEWLLAQK-OH
modifications: N-terminus assumed
SMILES: CC[C@H](C)[C@H](NC(=O)[C@H](CO)NC(=O)[C@H](Cc1ccc(O)cc1)NC(=O)[C@H](CC(=O)O)NC(=O)[C@H](CO)NC(=O)[C@@H](NC(=O)[C@H](Cc1ccccc1)NC(=O)[C@@H](NC(=O)CNC(=O)[C@@H](N)CCC(=O)O)[C@@H](C)O)[C@@H](C)CC)C(=O)N[C@@H](C)C(=O)N[C@@H](CCSC)C(=O)N[C@@H](CC(=O)O)C(=O)N[C@@H](CCCCN)C(=O)N[C@H](C(=O)N[C@@H](CCCCNC(=O)CCCCCCCCCCCCCCC(=O)O)C(=O)N[C@@H](CCC(N)=O)C(=O)N[C@@H](CCC(N)=O)C(=O)N[C@@H](CC(=O)O)C(=O)N[C@@H](Cc1ccccc1)C(=O)N[C@H](C(=O)N[C@@H](CCC(=O)O)C(=O)N[C@@H](Cc1c[nH]c2ccccc12)C(=O)N[C@@H](CC(C)C)C(=O)N[C@@H](CC(C)C)C(=O)N[C@@H](C)C(=O)N[C@@H](CCC(N)=O)C(=O)N[C@@H](CCCCN)C(=O)O)C(C)C)[C@@H](C)CC

Biological target: T1, human GIP receptor
Experiment: cell-based or functional assay

| Binder | nM (Kb, Gaddum assay, cAMP) | pKb (Gaddum assay, cAMP) |
| --- | --- | --- |
| B1 | 14 nM | 7.9 |
| B2 | 0.42 nM | 9.4 |
| B3 | 2.2 nM | 8.7 |
